From the RNAGym collection of RNA variant scans (doi:10.1093/nar/gkz1192) come the findings set out here.

B1: CPEB3 Ribozyme (parent)
chain: UAACAGGGGGCCACAGCAGAAGCGUUCACGUCGCAGCCCCUGUCAGAUUCUGGUGAAUCUGCGAAUUCUGCUGUAUAUCUC

Variants of B1 are the subject of the data set. As to the kind of experiment: self-cleavage, relative activity (ratio to wild type); higher = more cleavage; in vitro, sequencing. The method, boiled down: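 Relative activity compares each variant's cleaved/total read fraction with that of the unmutated ribozyme. To get these fractions, barcoded CPEB3 ribozyme libraries from rounds of error-prone PCR were transcribed with T7 RNA polymerase for 5 hours at 37°C and then given 15 min of DNase I treatment before EDTA was added. The RNAs were reverse transcribed with template switching and sequenced on Illumina, and DNA sequencing linked barcodes to variants. A minimum of 5 reads applied, and three batches were averaged.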
For A47G G55U, the self-cleavage came to 0.99. Regarding A20G G33C, the self-cleavage is 0.14. For the variant A35U U80C, the self-cleavage came to 0.63. Under A3G G55U stands 1.12; under A18C U66C, 0.21. Take A5G C29G: the self-cleavage was determined as 0.57.

Turning to A3U U48C, the self-cleavage amounted to 0.63.

Regarding A28U C79U, the self-cleavage is 0.99. Under G33C A57G stands 0.13. The figure for G9C U74C is 0.26; for A35G U72G it is 1.29. A21G U54A: the self-cleavage was 0.71. For the variant A35U A64C, the self-cleavage stood at 0.16. As to G10A U41A, the self-cleavage was 0.29. Under U31G A65G stands 0.22.

As to U1C A5G, the self-cleavage was found to be 0.68. The figure for U25C U76C is 0.3; for A45C U80C it is 0.4. Under A21G A75C stands 0.62.

On to A47U U67A, for which the self-cleavage is 0.33.

Take U26A C37G: the self-cleavage worked out at 0.62. The figure for A13C C17U is 0.53. The figure for U26A A35U is 0.38; for U41C U58G it is 0.41. The figure for U41C U58C is 0.58; for A45C A57G it is 0.26.

With A28U G52A, the self-cleavage turned out to be 0.83. Under A21G U48G stands 0.34; under A35C U48C, 0.47. The figure for C11U C68A is 0.11; for A2U C34U it is 0.24; for U43C U48A it is 0.29. For the variant A21G G55U, the self-cleavage is 0.57. Under G8A U31G stands 0.41; under G46A U49A, 0.33.

With A13U U76A, the self-cleavage is 1.11. As for G6A A15C, the self-cleavage worked out at 0.42.

With C12U C17U, the self-cleavage worked out at 1.13. Under C17G U58C stands 0.22. Under A15C U58A stands 0.41. The figure for C37A U51C is 0.17; for A3G A65U it is 0.25. For the variant G24U U48C, the self-cleavage turned out to be 0.12. Under A20G U41A stands 0.28; under G16C A35G, 0.83. Under U72A G73C stands 1.25; under C34A U54A, 0.17; under C14A A57U, 1.14. The figure for A3G A20U is 0.41; for G52C U69C it is 0.86; for A18C C39A it is 0.41.

Consider G33A G42U, for which the self-cleavage turned out to be 0.39.

With A20U U69C, the self-cleavage turned out to be 0.15. The figure for A15G U51G is 0.62; for U31C U43G it is 0.36; for C37G C68A it is 0.18.

Turning to U25G U78C, the self-cleavage amounted to 0.15. Under G52A U76G stands 1.15; under G16U U80A, 0.52. Under U72C C81A stands 1.05; under A47G G61C, 0.35. For the variant A47G G61U, the self-cleavage was 0.49. Under A18G A20U stands 0.27; under A5U C12U, 1.14; under C62A U69A, 0.31. The figure for A65C U72A is 0.27; for G6U A64U it is 0.07. In the case of U41A U74C, the self-cleavage was 0.4. The figure for G24A U60G is 0.13; for U31A G52A it is 0.69; for A15G U67C it is 0.24. The figure for G53U U66G is 0.66. Turning to A15U G55U, the self-cleavage stood at 0.68. As for A18G A56U, the self-cleavage was 0.35. The figure for A47G U72C is 1.12; for A20U A28G it is 0.22; for A2U A47G it is 1.11. Under G10U U72C stands 0.22. U48A A65U: the self-cleavage is 0.15.

Turning to G9U C29U, the self-cleavage is 0.13.

For the variant A20G U80C, the self-cleavage turned out to be 1.03. Under C12U A75U stands 1.28; under C12U A75G, 1.3; under A18C U31A, 0.19. The figure for G33U U49G is 0.2.

As to C12U A18U, the self-cleavage turned out to be 0.62.

For the variant G16C U60C, the self-cleavage turned out to be 0.2. The figure for U69A U72C is 0.5. As to C27U A28G, the self-cleavage came to 0.37. Under A20G U26A stands 0.77; under U60G A77G, 0.47; under G7A A28G, 0.16. Under U1G U26C stands 0.4; under G63U U76G, 1.17; under A18G U58G, 0.28. The figure for U69G U78A is 0.45; for G70A A77U it is 1.07. For A13U A28C, the self-cleavage came out at 0.64.

G10A G42U: the self-cleavage worked out at 0.38.

For the variant G42U U58A, the self-cleavage amounted to 0.11. Under G16C U49C stands 0.08; under C37G U74A, 1.13.

In the case of U48A U66C, the self-cleavage was 0.16. Under A20G U58C stands 0.36. For C4U G8U, the self-cleavage was 0.38. Under C4U G8A stands 0.28; under A28U U76C, 0.88. Under G10U A13U stands 0.1; under U54C A77G, 1.07; under U51C U60A, 0.49. Under G55A U80A stands 1.15; under A18U G30U, 0.17.

With U31C U67A, the self-cleavage was 0.34. The figure for C17G U80A is 0.37; for G22C A75U it is 0.24. Turning to C23G A77U, the self-cleavage stood at 0.36. The figure for A45G G70U is 0.33. The figure for U41C G61U is 0.62; for A21U U58A it is 0.37. On to C40U U72A, for which the self-cleavage worked out at 0.39. The figure for G33C U78A is 0.08.

On to U48C U78A, for which the self-cleavage was found to be 0.86.

Take U76C U80G: the self-cleavage amounted to 1.24. Under C50U stands 1.01; under G9A A15G, 0.3; under G8C C23A, 0.3. The figure for A57U U66C is 0.33.

For the variant G24C G61A, the self-cleavage came out at 0.18. Under G33U U72G stands 0.28. With A3C A57G, the self-cleavage is 1.19. The figure for C37G U48C is 0.45; for G22A G63A it is 0.27. On to C17G U26C, for which the self-cleavage was 0.16. Turning to U25C G53A, the self-cleavage was 0.43. Under G42U A64U stands 0.13; under C68A C81A, 0.6; under U26A C79U, 1.05. The figure for A3U A13C is 0.96; for G24U A64U it is 0.3; for C29G U69C it is 0.21. The figure for A3C U49A is 1.1; for U41A U80A it is 0.28; for A2G U31A it is 0.43. Take G22C C62U: the self-cleavage is 0.16. The figure for A3U A35G is 1.28; for G61A U69C it is 0.53.

U54A G73U: the self-cleavage worked out at 1.27. Under A3C A45G stands 0.93. On to A64G U76A, for which the self-cleavage was determined as 0.95. The figure for U54G U67A is 0.57; for A47G U80C it is 1.08; for U49G A64G it is 0.4. Under U51C G53U stands 1.2. Under A65G U78C stands 0.42; under A65G U78A, 0.6.

On to A5U C68A, for which the self-cleavage amounted to 0.29.

Regarding A3G A64G, the self-cleavage is 0.92.

For the variant C38G A77U, the self-cleavage was 0.31. Under C12A C62G stands 0.24; under U31C A45U, 0.32; under G10A C32U, 0.19. Under U1C U78A stands 1.11; under G36A U43C, 0.29. Under C12U A65U stands 0.42; under U41C A45C, 0.53; under C4A U78C, 0.74.

Turning to A13G C40G, the self-cleavage was found to be 0.23.
